# Laboratory results taken from paper doi:10.1101/2020.01.12.903617, “The peptide sensor motif stabilizes the outward-facing conformation of TmrAB” (bioRxiv, 2020).
# No end group written: not given here. fluorescein = fluorescein label attached to the Cys side chain
# T1: TmrAB R132A^TmrA (Thermus thermophilus, UniProt Q72J05 1-600; Q72J04 1-578, R132A)
# T1 construct: TmrA, Thermus thermophilus, the chain of TmrAB with the canonical Walker B motif; TmrB, Thermus thermophilus, the chain of TmrAB with the non-canonical Walker B motif
# T1 sequence 1: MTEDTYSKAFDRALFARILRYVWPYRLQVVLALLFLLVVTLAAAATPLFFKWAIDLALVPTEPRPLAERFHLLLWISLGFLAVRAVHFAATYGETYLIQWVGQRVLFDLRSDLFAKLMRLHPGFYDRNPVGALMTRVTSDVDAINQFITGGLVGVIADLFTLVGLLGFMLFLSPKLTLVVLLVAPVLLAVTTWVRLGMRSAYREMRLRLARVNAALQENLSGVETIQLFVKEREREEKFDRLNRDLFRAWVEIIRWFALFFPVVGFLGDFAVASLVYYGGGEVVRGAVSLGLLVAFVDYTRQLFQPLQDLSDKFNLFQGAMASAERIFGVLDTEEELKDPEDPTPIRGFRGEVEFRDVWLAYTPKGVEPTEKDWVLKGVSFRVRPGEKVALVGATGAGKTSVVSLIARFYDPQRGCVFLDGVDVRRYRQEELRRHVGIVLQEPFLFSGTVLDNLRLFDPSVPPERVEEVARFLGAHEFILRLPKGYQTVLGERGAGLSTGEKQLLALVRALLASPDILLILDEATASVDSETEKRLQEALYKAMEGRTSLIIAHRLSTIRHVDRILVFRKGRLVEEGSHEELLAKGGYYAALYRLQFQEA
# T1 sequence 2: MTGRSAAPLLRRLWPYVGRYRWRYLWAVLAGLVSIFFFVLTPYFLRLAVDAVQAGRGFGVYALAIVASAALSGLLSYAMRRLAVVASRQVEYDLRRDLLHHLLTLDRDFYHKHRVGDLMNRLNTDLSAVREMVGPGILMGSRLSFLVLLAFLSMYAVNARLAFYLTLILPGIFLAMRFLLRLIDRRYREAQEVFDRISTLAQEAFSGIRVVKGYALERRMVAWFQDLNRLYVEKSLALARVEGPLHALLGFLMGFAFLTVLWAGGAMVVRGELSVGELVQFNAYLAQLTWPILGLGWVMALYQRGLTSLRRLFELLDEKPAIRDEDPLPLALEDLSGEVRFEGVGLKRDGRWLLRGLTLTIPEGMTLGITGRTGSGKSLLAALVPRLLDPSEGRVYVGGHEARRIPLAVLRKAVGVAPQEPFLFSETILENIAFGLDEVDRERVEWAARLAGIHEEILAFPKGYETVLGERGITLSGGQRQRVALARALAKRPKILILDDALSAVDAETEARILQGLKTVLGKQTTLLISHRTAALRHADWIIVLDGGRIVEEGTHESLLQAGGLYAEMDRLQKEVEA
# T2: TmrAB G131A^TmrA (Thermus thermophilus, UniProt Q72J05 1-600; Q72J04 1-578, G131A)
# T2 construct: TmrA, Thermus thermophilus, the chain of TmrAB with the canonical Walker B motif; TmrB, Thermus thermophilus, the chain of TmrAB with the non-canonical Walker B motif; also called G131A^TmrA variant; source: cultured at room temperature for 16 hours after induction
# T2 sequence 1: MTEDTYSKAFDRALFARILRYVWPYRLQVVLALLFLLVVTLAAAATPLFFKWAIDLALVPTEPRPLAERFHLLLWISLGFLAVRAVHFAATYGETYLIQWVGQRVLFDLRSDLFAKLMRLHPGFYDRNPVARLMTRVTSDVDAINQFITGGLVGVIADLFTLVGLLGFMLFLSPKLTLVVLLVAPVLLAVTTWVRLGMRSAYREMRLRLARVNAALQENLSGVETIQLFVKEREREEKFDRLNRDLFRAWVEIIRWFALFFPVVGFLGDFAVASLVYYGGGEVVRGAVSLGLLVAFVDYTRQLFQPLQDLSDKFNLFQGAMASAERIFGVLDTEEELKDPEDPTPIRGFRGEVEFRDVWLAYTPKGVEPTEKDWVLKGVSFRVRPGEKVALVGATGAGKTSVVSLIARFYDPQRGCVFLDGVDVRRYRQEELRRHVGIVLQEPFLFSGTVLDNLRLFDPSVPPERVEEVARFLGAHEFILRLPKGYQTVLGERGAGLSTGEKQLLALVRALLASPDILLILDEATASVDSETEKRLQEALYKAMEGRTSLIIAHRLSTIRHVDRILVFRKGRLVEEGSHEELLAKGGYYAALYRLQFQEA
# T2 sequence 2: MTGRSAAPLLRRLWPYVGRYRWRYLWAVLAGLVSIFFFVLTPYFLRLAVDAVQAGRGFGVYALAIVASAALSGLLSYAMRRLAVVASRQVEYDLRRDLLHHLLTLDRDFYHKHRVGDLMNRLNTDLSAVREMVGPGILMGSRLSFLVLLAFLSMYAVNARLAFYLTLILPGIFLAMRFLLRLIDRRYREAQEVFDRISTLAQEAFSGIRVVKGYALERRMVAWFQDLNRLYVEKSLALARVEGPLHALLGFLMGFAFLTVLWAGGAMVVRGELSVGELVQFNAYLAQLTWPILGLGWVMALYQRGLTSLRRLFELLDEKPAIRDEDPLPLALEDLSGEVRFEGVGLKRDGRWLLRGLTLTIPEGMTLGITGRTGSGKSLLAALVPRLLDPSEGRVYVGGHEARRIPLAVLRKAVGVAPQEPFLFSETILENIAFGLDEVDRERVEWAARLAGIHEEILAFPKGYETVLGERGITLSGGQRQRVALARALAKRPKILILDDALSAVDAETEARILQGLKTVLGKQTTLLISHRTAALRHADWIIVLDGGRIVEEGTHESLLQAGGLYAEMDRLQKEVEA
# Experiments:
# TmrAB R132A^TmrA = molecular target: T1, TmrAB R132A^TmrA; assay: fluorescence polarisation; 1.7 uM TmrAB with 50 nM RRY(C^Fluorescein)KSTEL in SEC buffer (20 mM HEPES, 150 mM NaCl, pH 7, 0.05% ß-DDM), 15 minutes on ice, in the absence or presence of 5 mM ATP and 10 mM MgCl2; read at 25°C (the results say 4°C); signal normalized to WT without ATP; conditions: both partners purified
# TmrAB G131A^TmrA = molecular target: T2, TmrAB G131A^TmrA; assay: as above; conditions: both partners purified
binder,measurement,setting,value
RRYC(fluorescein)KSTEL (fluorescein-labelled transport substrate peptide of TmrAB; also called fluorescently-labeled peptide substrate; peptide substrate; source: bought: Genscript) [fluorescent transport substrate peptide RRY(C^Fluorescein)KSTEL],binding result,TmrAB R132A^TmrA,binds
same,binding result,TmrAB G131A^TmrA,binds
